{"source": "patent US10480012B2", "about": "“CYP-P22 biocatalytic nanoparticles with cytochrome P450 activity for prodrug activation” (UNIVERSIDAD NACIONAL AUTÓNOMA DE MÉXICO, priority 2015, dated 2019)", "molecules": {"B1": {"name": "CYP-P22: cytochrome P450 (CYPBM3 “21B3” fused to scaffold protein) encapsulated in a bacteriophage P22 nanocapsid (protein)", "chain": "MAIKEMPQPKTFGELKNLPLLNTDKPVQALMKIADELGEIFKFEAPGRVTRYLSSQRLVKEACDESRFDKNLSQALKFVRDFAGDGLATSWTHEKNWKKARNILLPSLSQQAMKGYHAMMVDIAVQLVQKWERLNSDEKIEVPEDVTRLTLDTIGLCGFNYRFNSFYRDQPHPFITSMVRALDEAMNKLQRANPDDPAYDENKRQFQEDIKVMDLVDKIIADRKASGEQSDDLLTHMLHGKDPETGEPLDDENIRYQIITFLIAGHETTSGLLTFALYFLVKNPHVLQKAAEEAARVLVDPVPSYKQVKQLKYVGMVLNEALRLWPTAPAFSLYAKEDTVLGGEYPLEKGDELMVLIPQLHRDKTIWGDDVEEFRPERFENPSAIPQHAFKPFGNGQRACIGQQFALHEATLVLGMMLKHFDFEDHTNYELDIEETLTLKPEGFVIKAKSKKIPLGGIPSPSTGSLVPRGSCRSNAVAEQGRKTQEFTQQSAQYVEAARKHYDAAEKLNIPDYQEKEDAFMQLVPPAVGADIMRLFPEKSAALMYHLGANPEKARQLLAMDGQSALIELTRLSERLTLKPRGKQISSAPHADQPITGDVSAANKDAIRKQMDAAASKGDVETYRKLKAKLKGIR"}}, "key": {"pH activity profile": {"assay": "pH activity profile", "type": "biochemical", "conditions": "500 μM 2,6-DMP, 5 mM H2O2", "description": "To determine the activity profile at different pH values for the encapsulated and free enzyme, catalytic activity was measured at the following pHs: 5 (100 mM sodium acetate), 6 (100 mM potassium phosphate}, 7, 8 and 9 (100 mM Tris-HCl), 10 (100 mM borates). Catalytic activity was measured in a final volume of 0.1 mL using as substrate 500 μM 2,6-DMP and initiating the reaction with 5 mM H2O2."}, "trypsin": {"system": "trypsin", "assay": "Stability to protease degradation (trypsin), residual activity", "type": "physicochemical", "conditions": "10 U trypsin per mg protein, room temperature", "description": "For proteolysis assays, the encapsulated and free enzyme was treated with 10 U of trypsin per mg protein, incubating for 1 and 20 h at room temperature. At the end of each time, an aliquot was taken out of the sample and the residual activity was measured in 100 mM Tris-HCl buffer pH 8 using 500 μM 2,6-DMP as substrate and initiating the reaction with 5 mM H2O2."}, "[1]": {"assay": "Kinetic parameters of encapsulated and free CYP with 2,6-DMP and H2O2", "type": "biochemical", "description": "To calculate the kinetic parameters using 2,6-DMP as a substrate, two curves were constructed with two different concentrations of hydrogen peroxide, 5 mM and 60 mM. Reactions were carried out in 0.1 mL (50 mM Tris-HCl pH 8) with the following phenol concentrations: 10, 25, 50, 125, 250 and 500 μM. The reaction was started by adding 5 mM or 60 mM of H2O2. The amount of encapsulated enzyme used was 42.9 picomoles (assays with 5 mM H2O2) and 21.45 picomoles (assays with 60 mM H2O2); the amount of protein was determined by a concentration assay, specific for CYP450, for binding to CO. The catalytic activity was spectrophotometrically monitored at 468 nm (ε468=14800 M^−1 cm^−1 using an Agilent 8453 UV-vis spectrophotometer. Catalytic constants were obtained through the GraphPad Prism 6 program.\nH) Catalytic capacity of P22 capsids with CYP inside is evaluated. Reactions were carried out in 0.1 mL (50 mM Tris-HCl pH 8) with the following phenol concentrations: 10, 25, 50, 125, 250 and 500 μM. The reaction was started by adding 5 mM or 60 mM of H2O2. The amount of encapsulated enzyme used was 42.9 picomoles, the amount of protein was determined by a CO binding assay specific for CYP450. Catalytic activity was spectrophotometrically monitored at 468 nm (ε468=14800 M^−1 cm^−1). […] The encapsulated enzyme follows a Michaelis-Menten kinetics as does free CYP."}, "[2]": {"system": "human MCF7 breast cancer cells", "assay": "CYP activity in tumor cells treated with nanoparticles (BFC fluorescence assay)", "type": "cell-based", "conditions": "100 μM BFC, fluorescence images", "description": "I) The presence of biocatalytic nanoparticles (loaded nanoparticles) with CYP activity is evaluated in transformation of 7-benzyloxy-4-trifluorometyl-coumarin (BFC) monitored by fluorescence according to the method of Donato et al.. The fluorescence assay for determining CYP activity is performed with a direct incubation of cultured tumor cells in a 12-well plate in the presence of BFC 100 μM. […] After 60 min incubation at 37° C. the incubation medium is removed and the conjugated products of CYP transformation will be hydrolyzed with a mixture of 3-giucoronidase/arylsulfatase for 2 hours at 37° C. Finally, samples are diluted with the corresponding solution and product fluorescence (7-hydroxy-4-trifluoromethylcoumarin, HFC) is quantified in a spectrofluorimeter with 410 nm excitation and 510 nm emission.\nJ) Affinity evaluation of functionalized loaded nanoparticles in tumor cells in vitro is carried out in human MCF7 breast cancer cells that are maintained in DMEM medium (Dulbecco's Modified Eagle's Medium) supplemented with 10% fetal bovine serum. […] The presence of biocatalytic nanoparticles (CYP-P22) with CYP activity is evaluated in the transformation of 7-benzyloxy-4-trifluoromethyl-coumarin (BFC) monitored by fluorescence according to the method of Donato et al.. […]"}, "[3]": {"assay": "Temperature stability, activity retention at 40 and 50° C.", "type": "physicochemical", "description": "Stability of encapsulated CYP and the free enzyme was determined by measuring the percentage of activity retention at different times when the protein was incubated at 40 and 50° C. in a water bath. Incubation times for each of the temperatures were 0, 5, 10, 15 and 30 min. At the end of each time, an aliquot was removed from the sample, centrifuged for 1 min at 16,000×g and left to rest for 10 min to temper the sample before measuring activity. Catalytic activity was measured in a final volume of 0.1 mL in 100 mM Tris-HCl buffer pH 8 using 500 μM 2,6-DMP as substrate and initiating the reaction with 5 mM H2O2."}}, "data": [{"molecule": "B1", "values": [{"measurement": "pH of optimum activity", "setting": "pH activity profile", "value": "pH 8 and 9"}, {"measurement": "activity retained after incubation with trypsin", "setting": "trypsin; 1 hour", "value": 96, "unit": "%"}, {"measurement": "activity retained after incubation with trypsin", "setting": "trypsin; 20 hours", "value": 38, "unit": "%"}, {"measurement": "catalytic activity using 2,6-DMP and H2O2 as substrates", "setting": "[1]", "value": "catalytically active"}, {"measurement": "kcat app", "setting": "[1]; substrate 2,6-DMP, 5 mM H2O2, 50 mM Tris-HCl pH 8", "value": "127.2 (±2.3) min^−1"}, {"measurement": "cytochrome P450 activity in treated tumor cells versus endogenous activity in untreated cells", "setting": "[2]", "value": "much greater"}, {"measurement": "stability compared with free enzyme", "setting": "[3]; 40° C.", "value": "practically the same"}, {"measurement": "inactivation compared with free CYP", "setting": "[3]; 50° C.", "value": "even faster than that found for free CYP"}]}]}
